B1: Zinc finger protein GLI1 (Homo sapiens), P08151 (parent)
chain: MFNSMTPPPISSYGEPCCLRPLPSQGAPSVGTEGLSGPPFCHQANLMSGPHSYGPARETNSCTEGPLFSSPRSAVKLTKKRALSISPLSDASLDLQTVIRTSPSSLVAFINSRCTSPGGSYGHLSIGTMSPSLGFPAQMNHQKGPSPSFGVQPCGPHDSARGGMIPHPQSRGPFPTCQLKSELDMLVGKCREEPLEGDMSSPNSTGIQDPLLGMLDGREDLEREEKREPESVYETDCRWDGCSQEFDSQEQLVHHINSEHIHGERKEFVCHWGGCSRELRPFKAQYMLVVHMRRHTGEKPHKCTFEGCRKSYSRLENLKTHLRSHTGEKPYMCEHEGCSKAFSNASDRAKHQNRTHSNEKPYVCKLPGCTKRYTDPSSLRKHVKTVHGPDAHVTKRHRGDGPLPRAPSISTVEPKREREGGPIREESRLTVPEGAMKPQPSPGAQSSCSSDHSPAGSAANTDSGVEMTGNAGGSTEDLSSLDEGPCIAGTGLSTLRRLENLRLDQLHQLRPIGTRGLKLPSLSHTGTTVSRRVGPPVSLERRSSSSSSISSAYTVSRRSSLASPFPPGSPPENGASSLPGLMPAQHYLLRARYASARGGGTSPTAASSLDRIGGLPMPPWRSRAEYPGYNPNAGVTRRASDPAQAADRPAPARVQRFKSLGCVHTPPTVAGGGQNFDPYLPTSVYSPQPPSITENAAMDARGLQEEPEVGTSMVGSGLNPYMDFPPTDTLGYGGPEGAAAEPYGARGPGSLPLGPGPPTNYGPNPCPQQASYPDPTQETWGEFPSHSGLYPGPKALGGTYSQCPRLEHYGQVQVKPEQGCPVGSDSTGLAPCLNAHPSEGPPHPQPLFSHYPQPSPPQYLQSGPYTQPPPDYLPSEPRPCLDFDSPTHSTGQLKAQLVCNYVQSQQELLWEGGGREDAPAQEPSYQSPKFLGGSQVSPSRAKAPVNTYGPGFGPNLPNHKSGSYPTPSPCHENFVVGANRASHRAAAPPRLLPPLPTCYGPLKVGGTNPSCGHPEVGRLGGGPALYPPPEGQVCNPLDSLDLDNTQLDFVAILDEPQGLSPPPSHDQRGSSGHTPPPSGPPNMAVGNMSVLLRSLPGETEFLNSSA
B2: Zinc finger protein GLI1 (Homo sapiens), P08151 (parent)
chain: B1 chain
partner: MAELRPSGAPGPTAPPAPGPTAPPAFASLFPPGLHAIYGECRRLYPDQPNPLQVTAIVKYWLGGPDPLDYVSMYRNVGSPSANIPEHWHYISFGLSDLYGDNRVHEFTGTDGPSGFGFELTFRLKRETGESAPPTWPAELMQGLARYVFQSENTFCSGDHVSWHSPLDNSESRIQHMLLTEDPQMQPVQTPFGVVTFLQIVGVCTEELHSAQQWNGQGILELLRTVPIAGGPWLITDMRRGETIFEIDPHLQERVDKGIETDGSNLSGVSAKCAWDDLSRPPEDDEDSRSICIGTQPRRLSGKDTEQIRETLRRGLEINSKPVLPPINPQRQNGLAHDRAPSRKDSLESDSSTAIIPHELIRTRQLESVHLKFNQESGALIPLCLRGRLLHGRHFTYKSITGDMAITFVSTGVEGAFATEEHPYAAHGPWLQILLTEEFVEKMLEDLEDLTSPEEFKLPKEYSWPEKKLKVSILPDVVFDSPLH

Variants of B1 are the subject of one test. To be noted: with RPS6KB1, P23443-2.
Sequence of RPS6KB1, P23443-2 (P23443 24-525): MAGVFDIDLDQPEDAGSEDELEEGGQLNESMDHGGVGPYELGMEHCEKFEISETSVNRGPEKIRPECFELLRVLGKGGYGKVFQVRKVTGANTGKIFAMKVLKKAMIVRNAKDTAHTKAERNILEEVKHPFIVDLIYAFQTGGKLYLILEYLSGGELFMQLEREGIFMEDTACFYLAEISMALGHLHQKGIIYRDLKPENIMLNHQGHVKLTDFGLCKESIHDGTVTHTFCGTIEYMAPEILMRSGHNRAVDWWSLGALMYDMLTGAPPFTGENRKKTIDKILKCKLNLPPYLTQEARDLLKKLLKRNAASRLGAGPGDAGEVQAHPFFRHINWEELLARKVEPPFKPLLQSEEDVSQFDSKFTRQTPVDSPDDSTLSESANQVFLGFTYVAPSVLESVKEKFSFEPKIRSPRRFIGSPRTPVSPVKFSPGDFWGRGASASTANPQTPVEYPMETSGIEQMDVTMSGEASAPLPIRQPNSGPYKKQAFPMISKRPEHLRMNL
On to S84A, for which the “effect of a mutation on the interaction” value was “disrupting interaction”.

Another test covers variants of B2. To be noted: with sufu_human SUFU.
As for S84E, the “effect of a mutation on the interaction” value is given as “decreasing interaction”.
